Measured values taken from the supplement of paper PMC10567573.

B1: ZNF649 (parent)
chain: MTKAQESLTLEDVAVDFTWEEWQF
B2: LOXL2 (parent)
chain: YVEVKEGKTWKQICDKHWTAKNSR

Variants of: B1
Assay: protein stability index of a GFP-peptide fusion (GPS, HEK-293T) (PSI 1-6); higher = more stable
Conditions: c terminus: a fixed tail appended
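Further: lentivirally expressed fusions sorted by FACS into six bins by GFP to DsRed ratio, PSI derived from sequencing read proportions per bin multiplied by bin number.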

Row | Variant | protein stability index
1 | E21P | 1.89
2 | E21Q | 3.08
3 | E21S | 2.11
4 | E21C | 1.58
5 | E21R | 3.17
6 | E21N | 1.54
7 | E21H | 1.53
8 | E21Y | 1.95
9 | E21W | 2.72
10 | E21T | 2.21
11 | E21L | 1.23
12 | E21V | 2.81
13 | E21A | 2.12
14 | E21G | 1.49
15 | E21K | 1.95
16 | E21M | 2.25
17 | E21D | 3.36
18 | E21F | 3.42
19 | F24L | 3.83
20 | F24W | 2.88
21 | F24Y | 3.4
22 | F24A | 4.61
23 | F24K | 4.87
24 | F24G | 4.45

Row | Variant | protein stability index
25 | F24C | 3.99
26 | F24R | 4.34
27 | F24E | 5.32
28 | F24S | 3.9
29 | F24M | 4.49
30 | F24P | 3.9
31 | F24H | 4.01
32 | F24D | 4.57
33 | F24I | 2.51
34 | F24T | 3.94
35 | F24N | 4.35
36 | F24V | 3.77
37 | E20A | 2.48
38 | E20Q | 2.32
39 | E20F | 1.44
40 | E20R | 2.06
41 | E20N | 2.41
42 | E20T | 2.5
43 | E20M | 2.57
44 | E20V | 3.37
45 | E20H | 2.22
46 | E20G | 2.17
47 | E20C | 2.48
48 | E20P | 2.76

Row | Variant | protein stability index
49 | E20L | 1.3
50 | E20S | 2.65
51 | E20Y | 2
52 | E20I | 1.87
53 | E20W | 2.28
54 | E20K | 2.51
55 | E20D | 3.14
56 | W22Y | 3.44
57 | W22M | 3.72
58 | W22V | 3.96
59 | W22I | 3.54
60 | W22E | 4.52
61 | W22K | 4.76
62 | W22S | 4.78
63 | W22L | 3.62
64 | W22R | 3.69
65 | W22C | 3.12
66 | W22F | 3.41
67 | W22G | 4.33
68 | W22Q | 4.16
69 | W22H | 4.13
70 | W22N | 4.27
71 | W22D | 4.64
72 | W22T | 4.28

Row | Variant | protein stability index
73 | W22A | 4.17
74 | W22P | 4.4
75 | Q23T | 3.1
76 | Q23V | 2.08
77 | Q23C | 2.26
78 | Q23I | 1.97
79 | Q23K | 3.28
80 | Q23L | 2.05
81 | Q23S | 3.06
82 | Q23H | 2.02
83 | Q23G | 2.87
84 | Q23E | 3.46
85 | Q23D | 3.51
86 | Q23M | 2.72
87 | Q23Y | 2.38
88 | Q23A | 4.2
89 | Q23P | 3.22
90 | Q23F | 2.66
91 | Q23R | 3.56
92 | Q23N | 2.74
93 | W19Y | 3.61

Variants of: B2
Assay: as above
Conditions: c terminus: a fixed tail appended

Row | Variant | protein stability index
94 | C14A | 1.77
95 | C14I | 2.16
96 | C14E | 2.5
97 | C14F | 2.07
98 | C14G | 2.31
99 | C14H | 4.51
100 | C14D | 2.4
101 | Q12D | 2.02
102 | Q12M | 2.64
103 | Q12N | 2.61
104 | Q12G | 2.63
105 | Q12K | 2.63
106 | Q12C | 1.58
107 | Q12Y | 2.07
108 | Q12H | 3.06
109 | Q12A | 1.56
110 | Q12E | 1.58
111 | Q12W | 2.42
112 | Q12F | 2.46
113 | Q12V | 1.48
114 | Q12I | 3.16
115 | Q12L | 2.39
116 | Q12T | 2.43
117 | Q12P | 2.31
118 | Q12R | 3.12

Row | Variant | protein stability index
119 | T9P | 2
120 | T9D | 1.6
121 | T9E | 1.61
122 | T9N | 1.99
123 | T9S | 2.56
124 | T9C | 4.04
125 | T9K | 2.43
126 | T9V | 1.94
127 | T9W | 3.01
128 | T9G | 2.11
129 | T9L | 2.52
130 | T9I | 2.48
131 | T9H | 1.86
132 | T9R | 2.55
133 | T9Y | 2.33
134 | T9F | 4.42
135 | T9M | 2.92
136 | K11Q | 1.83
137 | K11W | 3.53
138 | K11F | 3.38
139 | K11E | 2.28
140 | K11M | 2.1
141 | K11L | 2.53
142 | K11Y | 4.35
143 | K11I | 2.23

Row | Variant | protein stability index
144 | K11S | 3.37
145 | K11P | 1.99
146 | K11R | 2.52
147 | K11H | 2.45
148 | K11C | 2.28
149 | K11V | 2.1
150 | K11D | 1.18
151 | K11T | 2.93
152 | K11G | 2.77
153 | Y1C | 3.36
154 | Y1P | 3.68
155 | Y1R | 3.12
156 | Y1D | 3.52
157 | Y1S | 3.71
158 | Y1F | 3.57
159 | Y1T | 3.21
160 | Y1L | 3.34
161 | Y1H | 3.14
162 | Y1E | 3.46
163 | Y1W | 2.29
164 | Y1N | 3.93
165 | Y1A | 3.4
166 | Y1V | 3.4
167 | Y1G | 3.72
168 | Y1Q | 3.58

Row | Variant | protein stability index
169 | Y1I | 2.68
170 | Y1M | 3.49
171 | Y1K | 3.84
172 | G7Q | 2.42
173 | G7E | 1.7
174 | G7F | 1.65
175 | G7N | 2.64
176 | G7C | 2.29
177 | G7P | 1.96
178 | G7R | 1.62
179 | G7Y | 2.18
180 | G7M | 1.72
181 | G7L | 1.95
182 | G7W | 2.52
183 | G7H | 1.62
184 | G7I | 1.85
185 | G7T | 1.24
186 | G7D | 1.6
187 | G7S | 1.86
188 | G7A | 1.61
189 | G7V | 2.8
190 | G7K | 1.91
191 | E3R | 1.88
192 | E3G | 3.63
193 | E3M | 1.06

Row | Variant | protein stability index
194 | E3H | 2.92
195 | E3L | 2.58
196 | E3N | 2.29
197 | E3W | 2.6
198 | E3A | 4.18
199 | E3C | 1.44
200 | E3F | 2.52
201 | E3S | 3.96
202 | E3D | 2.63
203 | E3V | 1.56
204 | E3T | 3.63
205 | E3Y | 2.73
206 | E3Q | 1.95
207 | E3K | 2.68
208 | E3I | 2.53
209 | V2E | 3.7
210 | V2T | 2.22
211 | V2K | 3
212 | V2N | 3.69
213 | V2Q | 2.16
214 | V2G | 1.98
215 | V2P | 2.12
216 | V2D | 3.58
217 | V2H | 1.55
218 | V2L | 2.72

Row | Variant | protein stability index
219 | V2R | 3.03
220 | V2Y | 2.8
221 | V2W | 1.98
222 | V2M | 2.96
223 | V2F | 2.21
224 | V2A | 1.78
225 | V2C | 2.09
226 | V2S | 2.86
227 | V2I | 2.66
228 | I13T | 2.68
229 | I13H | 2.42
230 | I13C | 2.6
231 | I13R | 2.59
232 | I13M | 2.19
233 | I13E | 2.33
234 | I13K | 2.81
235 | I13Y | 1.6
236 | I13S | 2.38
237 | I13Q | 2.5
238 | I13A | 2.73
239 | I13P | 3.38
240 | I13V | 2.44
241 | I13W | 2.25
242 | I13L | 1.4
243 | I13D | 3.54

Row | Variant | protein stability index
244 | I13N | 1.37
245 | W10R | 2.2
246 | W10I | 2.3
247 | W10T | 2.91
248 | W10S | 2.73
249 | W10K | 2.61
250 | W10C | 2.17
251 | W10G | 2.23
252 | W10D | 3.03
253 | W10Y | 1.93
254 | W10L | 2.46
255 | W10Q | 2.7
256 | W10H | 2.44
257 | W10P | 2.69
258 | W10N | 2.5
259 | W10M | 2.37
260 | W10A | 2.42
261 | W10E | 2.99
262 | W10V | 2.78
263 | W10F | 2.47
264 | V4H | 1.74
265 | V4G | 2.86
266 | V4P | 1.26
267 | V4K | 2.03
268 | V4R | 2.1

Row | Variant | protein stability index
269 | V4M | 1.82
270 | V4S | 2.73
271 | V4A | 2.73
272 | V4C | 2.22
273 | V4W | 1.39
274 | V4I | 2.55
275 | V4E | 1.42
276 | V4Y | 1.14
277 | V4F | 2.36
278 | V4Q | 1.51
279 | V4L | 3.89
280 | K5V | 2.63
281 | K5S | 1.46
282 | K5M | 2.33
283 | K5D | 2.54
284 | K5G | 2.46
285 | K5H | 1.85
286 | K5T | 2.35
287 | K5W | 2.87
288 | K5N | 1.86
289 | K5Q | 3.01
290 | K5A | 3.18
291 | K5Y | 1.78
292 | K5R | 3.94
293 | K5C | 1.65

Row | Variant | protein stability index
294 | K5P | 1.7
295 | K5E | 1.7
296 | K5I | 2.46
297 | K5L | 2.65
298 | K8T | 1.55
299 | K8A | 2.49
300 | K8G | 1.85
301 | K8D | 2.41
302 | K8C | 2.17
303 | K8N | 1.68
304 | K8E | 2.46
305 | K8R | 2.24
306 | K8S | 2.44
307 | K8M | 1.91
308 | K8V | 2.07
309 | K8F | 2.42
310 | K8Q | 3.07
311 | K8H | 1.44
312 | K8P | 2.63
313 | K8Y | 2.21
314 | K8I | 2.67
315 | K8L | 2.01
316 | E6I | 1.47
317 | E6Y | 2.65
318 | E6V | 3.77

Row | Variant | protein stability index
319 | E6P | 2.18
320 | E6Q | 4.18
321 | E6H | 2.64
322 | E6W | 2.16
323 | E6G | 3.33
324 | E6L | 2.79
325 | E6M | 2.88
326 | E6T | 2.77
327 | E6A | 2.14
328 | E6S | 1.99
329 | E6K | 2.89
330 | E6D | 2.9
331 | E6N | 2.44
332 | E6R | 1.84
333 | E6C | 3.35
334 | E6F | 2.49
